Laboratory results taken from the supplement of paper PMC9112550, “Optimization of the antimicrobial peptide Bac7 by deep mutational scanning” (BMC Biology, 2022).

test system: Escherichia coli TOP10; experiment: shrunken log2 fold change of peptide-encoding DNA abundance (4.5 h post-induction vs induction); higher = less antimicrobial activity (less host growth inhibition); conditions: time post-induction: 4.5 h; library: site-saturation at positions 5, 18, 19, 20
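Further: peptides expressed intracellularly from a pBAD plasmid library in pooled LB shake-flask culture, induced with 0.3% L-arabinose, DNA abundance read by NGS, three biological replicates, DESeq2 with apeglm shrinkage.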

| Sequence | shrunken log2 fold change |
| --- | --- |
| RRIRLRPPRLPRPRPRPCWMPRP | -0.168 |
| RRIRKRPPRLPRPRPRPFHYPRP | -0.0954 |
| RRIRFRPPRLPRPRPRPDGWPRP | 0.13 |
| RRIRTRPPRLPRPRPRPMMVPRP | -0.18 |
| RRIRHRPPRLPRPRPRPPHCPRP | -0.203 |
| RRIRFRPPRLPRPRPRPKIRPRP | -0.226 |
| RRIRKRPPRLPRPRPRPCFHPRP | -0.125 |
| RRIRQRPPRLPRPRPRPWFVPRP | -0.423 |
| RRIRPRPPRLPRPRPRPPLNPRP | 0.275 |
| RRIRDRPPRLPRPRPRPPFPPRP | 0.206 |
| RRIRLRPPRLPRPRPRPHHSPRP | -0.506 |
| RRIRKRPPRLPRPRPRPSGEPRP | 0.0144 |
| RRIRARPPRLPRPRPRPDFWPRP | 0.289 |
| RRIRNRPPRLPRPRPRPCIWPRP | 0.131 |
| RRIRFRPPRLPRPRPRPCMLPRP | -0.591 |
| RRIRYRPPRLPRPRPRPTSSPRP | -0.0743 |
| RRIRTRPPRLPRPRPRPPNFPRP | -0.0576 |
| RRIRQRPPRLPRPRPRPATAPRP | 0.115 |
| RRIRERPPRLPRPRPRPAFWPRP | 0.632 |
| RRIRARPPRLPRPRPRPMRYPRP | -0.179 |
| RRIRRRPPRLPRPRPRPLPPPRP | 0.937 |
| RRIRDRPPRLPRPRPRPMNCPRP | -0.00373 |
| RRIRNRPPRLPRPRPRPVSRPRP | -0.152 |
| RRIRGRPPRLPRPRPRPSANPRP | 0.858 |
| RRIRIRPPRLPRPRPRPNLYPRP | -0.565 |

| Sequence | shrunken log2 fold change |
| --- | --- |
| RRIRSRPPRLPRPRPRPEHDPRP | -0.128 |
| RRIRWRPPRLPRPRPRPVYHPRP | 0.161 |
| RRIRERPPRLPRPRPRPWLVPRP | -0.436 |
| RRIRRRPPRLPRPRPRPMLYPRP | -0.0417 |
| RRIRLRPPRLPRPRPRPQPTPRP | 0.0811 |
| RRIRGRPPRLPRPRPRPMNRPRP | 0.022 |
| RRIRTRPPRLPRPRPRPRMPPRP | 0.199 |
| RRIRRRPPRLPRPRPRPPQSPRP | 0.846 |
| RRIRSRPPRLPRPRPRPCERPRP | -0.0685 |
| RRIRRRPPRLPRPRPRPYMQPRP | -0.264 |
| RRIRRRPPRLPRPRPRPYVYPRP | -0.209 |
| RRIRHRPPRLPRPRPRPPCSPRP | -0.217 |
| RRIRHRPPRLPRPRPRPTDNPRP | -0.177 |
| RRIRFRPPRLPRPRPRPQTPPRP | 0.626 |
| RRIRTRPPRLPRPRPRPLEQPRP | -0.102 |
| RRIRDRPPRLPRPRPRPAGIPRP | -0.00461 |
| RRIRWRPPRLPRPRPRPMGRPRP | -0.012 |
| RRIRNRPPRLPRPRPRPNKCPRP | -0.466 |
| RRIRARPPRLPRPRPRPLMSPRP | 0.302 |
| RRIRGRPPRLPRPRPRPDFIPRP | 0.157 |
| RRIRCRPPRLPRPRPRPHLLPRP | -0.375 |
| RRIRLRPPRLPRPRPRPIALPRP | -0.0572 |
| RRIRDRPPRLPRPRPRPTPKPRP | 0.346 |
| RRIRSRPPRLPRPRPRPAPMPRP | 0.492 |
| RRIRCRPPRLPRPRPRPEVPPRP | -0.119 |

| Sequence | shrunken log2 fold change |
| --- | --- |
| RRIRNRPPRLPRPRPRPLAFPRP | 0.0414 |
| RRIRTRPPRLPRPRPRPLLVPRP | -0.119 |
| RRIRCRPPRLPRPRPRPGDYPRP | -0.081 |
| RRIRYRPPRLPRPRPRPKRSPRP | -0.113 |
| RRIRWRPPRLPRPRPRPIVRPRP | 0.326 |
| RRIRERPPRLPRPRPRPMNWPRP | 0.0377 |
| RRIRNRPPRLPRPRPRPKLEPRP | 0.0965 |
| RRIRPRPPRLPRPRPRPSIEPRP | -0.0734 |
| RRIRTRPPRLPRPRPRPNSFPRP | -0.00453 |
| RRIRGRPPRLPRPRPRPRPGPRP | 1.34 |
| RRIRFRPPRLPRPRPRPDEPPRP | 0.248 |
| RRIRCRPPRLPRPRPRPMIFPRP | -0.369 |
| RRIRNRPPRLPRPRPRPQHIPRP | -0.114 |
| RRIRRRPPRLPRPRPRPKLYPRP | 0.174 |
| RRIRSRPPRLPRPRPRPQNEPRP | -0.0107 |
| RRIRLRPPRLPRPRPRPRWLPRP | 0.398 |
| RRIRQRPPRLPRPRPRPIENPRP | 0.219 |
| RRIRTRPPRLPRPRPRPENDPRP | -0.0847 |
| RRIRYRPPRLPRPRPRPHASPRP | 0.0262 |
| RRIRARPPRLPRPRPRPFYLPRP | -0.515 |
| RRIRWRPPRLPRPRPRPVYCPRP | -0.196 |
| RRIRIRPPRLPRPRPRPFLQPRP | -0.248 |
| RRIRMRPPRLPRPRPRPCQQPRP | 0.0325 |
| RRIRVRPPRLPRPRPRPIDFPRP | -0.0311 |
| RRIRTRPPRLPRPRPRPFHWPRP | 0.036 |
